Assay results from the supplement of paper PMC10065799, “High-throughput profiling of sequence recognition by tyrosine kinases and SH2 domains using bacterial peptide display” (eLife, 2023).

Assays:
AncSZ = experiment: phosphorylation enrichment, bacterial display (enrichment ratio); higher = better substrate or ligand; peptides without Tyr show the background
EPHB1 = EPHB1 (UniProt P54762); experiment: as above
EPHB2 = EPHB2 (UniProt P29323); experiment: as above
FGFR1 = FGFR1 (UniProt P11362); experiment: as above
FGFR1, sequence (P11362 whole entry, looked up): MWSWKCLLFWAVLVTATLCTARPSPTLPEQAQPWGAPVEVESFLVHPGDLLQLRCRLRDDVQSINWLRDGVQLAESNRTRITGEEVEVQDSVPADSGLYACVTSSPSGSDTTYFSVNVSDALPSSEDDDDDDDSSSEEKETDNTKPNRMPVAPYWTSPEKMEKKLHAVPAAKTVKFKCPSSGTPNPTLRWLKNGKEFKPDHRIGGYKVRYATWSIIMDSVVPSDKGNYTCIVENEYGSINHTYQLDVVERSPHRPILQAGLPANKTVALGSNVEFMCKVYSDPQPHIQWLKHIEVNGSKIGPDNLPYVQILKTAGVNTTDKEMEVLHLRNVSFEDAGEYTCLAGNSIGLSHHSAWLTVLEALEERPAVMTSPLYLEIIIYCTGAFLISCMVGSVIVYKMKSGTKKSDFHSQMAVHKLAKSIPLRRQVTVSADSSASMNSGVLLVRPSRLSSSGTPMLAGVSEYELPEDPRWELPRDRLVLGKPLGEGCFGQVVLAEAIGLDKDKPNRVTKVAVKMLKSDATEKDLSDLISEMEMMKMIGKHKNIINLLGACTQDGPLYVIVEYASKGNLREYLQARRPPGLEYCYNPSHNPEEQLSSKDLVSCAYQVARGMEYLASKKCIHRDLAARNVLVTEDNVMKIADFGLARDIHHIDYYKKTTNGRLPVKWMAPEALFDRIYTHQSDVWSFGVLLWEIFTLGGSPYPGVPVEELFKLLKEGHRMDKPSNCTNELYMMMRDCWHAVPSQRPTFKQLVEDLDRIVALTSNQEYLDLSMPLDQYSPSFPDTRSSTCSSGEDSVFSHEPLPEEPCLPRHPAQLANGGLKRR

FGFR3 = FGFR3 (UniProt P22607); experiment: as above
FGFR3, sequence (P22607 whole entry, looked up): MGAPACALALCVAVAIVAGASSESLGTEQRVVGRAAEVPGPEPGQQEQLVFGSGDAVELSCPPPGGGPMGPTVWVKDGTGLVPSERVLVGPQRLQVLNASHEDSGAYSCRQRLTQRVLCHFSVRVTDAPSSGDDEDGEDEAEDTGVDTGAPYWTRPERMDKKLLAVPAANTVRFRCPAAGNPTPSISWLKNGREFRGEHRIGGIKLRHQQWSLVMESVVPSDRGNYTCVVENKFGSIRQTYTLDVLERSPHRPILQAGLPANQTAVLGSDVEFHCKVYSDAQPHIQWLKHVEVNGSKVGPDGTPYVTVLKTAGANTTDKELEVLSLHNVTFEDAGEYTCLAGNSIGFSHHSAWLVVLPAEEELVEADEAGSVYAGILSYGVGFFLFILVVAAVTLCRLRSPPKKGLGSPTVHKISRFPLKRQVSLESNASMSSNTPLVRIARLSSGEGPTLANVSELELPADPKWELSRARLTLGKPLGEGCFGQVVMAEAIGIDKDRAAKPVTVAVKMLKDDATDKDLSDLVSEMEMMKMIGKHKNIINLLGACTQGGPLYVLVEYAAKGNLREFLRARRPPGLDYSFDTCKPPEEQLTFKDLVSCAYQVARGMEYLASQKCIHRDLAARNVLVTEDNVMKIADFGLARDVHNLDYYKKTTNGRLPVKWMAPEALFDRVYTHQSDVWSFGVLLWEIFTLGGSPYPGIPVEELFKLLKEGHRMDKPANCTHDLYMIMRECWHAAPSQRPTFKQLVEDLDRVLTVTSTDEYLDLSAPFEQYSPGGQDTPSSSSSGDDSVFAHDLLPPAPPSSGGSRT

Fer (mouse) = experiment: as above
Fes = Fes (UniProt P07332); experiment: as above
Fes, sequence (P07332 whole entry, looked up): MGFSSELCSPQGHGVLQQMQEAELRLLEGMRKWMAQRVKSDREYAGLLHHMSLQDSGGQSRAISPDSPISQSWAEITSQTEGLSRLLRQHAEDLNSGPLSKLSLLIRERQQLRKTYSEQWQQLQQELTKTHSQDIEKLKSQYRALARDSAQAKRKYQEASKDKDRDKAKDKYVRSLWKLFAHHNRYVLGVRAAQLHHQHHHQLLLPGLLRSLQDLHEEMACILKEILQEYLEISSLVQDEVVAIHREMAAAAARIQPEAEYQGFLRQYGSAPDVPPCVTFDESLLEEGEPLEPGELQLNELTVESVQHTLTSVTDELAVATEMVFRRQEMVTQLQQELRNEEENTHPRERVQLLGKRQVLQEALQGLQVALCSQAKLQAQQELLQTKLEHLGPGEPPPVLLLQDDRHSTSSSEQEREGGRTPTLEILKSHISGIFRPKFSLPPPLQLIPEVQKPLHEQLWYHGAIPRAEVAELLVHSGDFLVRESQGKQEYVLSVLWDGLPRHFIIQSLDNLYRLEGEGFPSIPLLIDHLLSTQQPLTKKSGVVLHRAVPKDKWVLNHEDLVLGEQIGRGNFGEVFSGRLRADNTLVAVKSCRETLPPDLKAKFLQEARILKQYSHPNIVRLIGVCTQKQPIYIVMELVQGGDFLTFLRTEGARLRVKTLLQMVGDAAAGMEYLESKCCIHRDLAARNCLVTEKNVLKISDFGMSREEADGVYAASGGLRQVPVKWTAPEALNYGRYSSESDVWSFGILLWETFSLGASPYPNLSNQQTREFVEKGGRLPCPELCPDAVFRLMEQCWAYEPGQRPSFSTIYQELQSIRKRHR

Fyn = Fyn (UniProt P06241); experiment: as above
Hck = Hck (UniProt P08631); experiment: as above
Hck, sequence (P08631 whole entry, looked up): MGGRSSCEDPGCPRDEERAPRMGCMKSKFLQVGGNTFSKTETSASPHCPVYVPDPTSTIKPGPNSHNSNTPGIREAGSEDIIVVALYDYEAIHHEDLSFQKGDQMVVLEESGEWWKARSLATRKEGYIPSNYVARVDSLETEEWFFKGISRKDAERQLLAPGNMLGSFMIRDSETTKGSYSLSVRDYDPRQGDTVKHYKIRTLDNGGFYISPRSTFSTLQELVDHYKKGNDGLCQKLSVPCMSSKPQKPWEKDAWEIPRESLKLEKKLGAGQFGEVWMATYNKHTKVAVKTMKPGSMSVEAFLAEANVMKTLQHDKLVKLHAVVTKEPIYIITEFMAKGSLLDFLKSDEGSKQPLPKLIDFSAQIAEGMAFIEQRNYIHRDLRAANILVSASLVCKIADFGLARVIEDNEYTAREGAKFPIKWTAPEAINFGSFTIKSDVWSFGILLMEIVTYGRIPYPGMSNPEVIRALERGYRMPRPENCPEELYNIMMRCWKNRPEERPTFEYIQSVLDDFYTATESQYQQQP

Jak2 = Jak2 (UniProt O60674); experiment: as above
Jak2, sequence (O60674 whole entry, looked up): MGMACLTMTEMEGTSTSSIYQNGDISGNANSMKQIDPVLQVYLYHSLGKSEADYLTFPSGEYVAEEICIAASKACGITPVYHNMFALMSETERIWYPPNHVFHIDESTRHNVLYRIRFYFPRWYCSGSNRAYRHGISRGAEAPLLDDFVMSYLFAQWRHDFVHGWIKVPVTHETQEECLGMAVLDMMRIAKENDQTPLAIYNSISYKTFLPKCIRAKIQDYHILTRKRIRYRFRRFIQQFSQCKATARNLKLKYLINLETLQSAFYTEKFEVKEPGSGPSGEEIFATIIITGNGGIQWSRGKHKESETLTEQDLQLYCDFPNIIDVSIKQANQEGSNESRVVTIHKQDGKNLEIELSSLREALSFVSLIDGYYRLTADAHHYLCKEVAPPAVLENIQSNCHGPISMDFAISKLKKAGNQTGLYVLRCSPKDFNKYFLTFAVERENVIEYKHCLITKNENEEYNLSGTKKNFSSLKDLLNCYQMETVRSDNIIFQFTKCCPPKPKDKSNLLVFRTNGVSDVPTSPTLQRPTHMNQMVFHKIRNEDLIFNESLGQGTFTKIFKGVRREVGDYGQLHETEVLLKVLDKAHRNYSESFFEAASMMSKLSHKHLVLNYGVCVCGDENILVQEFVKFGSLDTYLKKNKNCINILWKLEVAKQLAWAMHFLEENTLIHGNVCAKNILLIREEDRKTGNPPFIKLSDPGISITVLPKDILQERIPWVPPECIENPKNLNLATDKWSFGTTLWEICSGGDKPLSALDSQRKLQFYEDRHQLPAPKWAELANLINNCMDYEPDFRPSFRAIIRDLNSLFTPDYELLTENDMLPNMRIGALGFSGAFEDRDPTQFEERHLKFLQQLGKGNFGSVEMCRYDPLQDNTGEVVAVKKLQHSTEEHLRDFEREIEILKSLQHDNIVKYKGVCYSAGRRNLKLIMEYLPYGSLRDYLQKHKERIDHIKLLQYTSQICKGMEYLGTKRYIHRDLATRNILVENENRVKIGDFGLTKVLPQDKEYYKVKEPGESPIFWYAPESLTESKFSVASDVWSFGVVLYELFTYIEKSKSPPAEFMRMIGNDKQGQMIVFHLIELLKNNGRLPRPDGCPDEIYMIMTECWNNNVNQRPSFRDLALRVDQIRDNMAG

MERTK = MERTK (UniProt Q12866); experiment: as above
c-Abl (mouse) = experiment: as above
c-Src = experiment: as above
Grb2 SH2 = Grb2 SH2 (UniProt P62993); experiment: SH2 binding enrichment of the phosphorylated peptide, bacterial display (enrichment ratio); higher = better substrate or ligand; peptides without Tyr show the background
SHP2-C SH2 = experiment: as above
c-Src SH2 = experiment: as above
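Throughout, for SH2 binding enrichment of the phosphorylated peptide, bacterial display: peptide library displayed on the E. coli surface as eCPX fusions, selected cells deep-sequenced, score is each peptide's frequency after selection divided by its frequency in the input.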
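Throughout, for phosphorylation enrichment, bacterial display: 11-residue human phosphosite peptides and single-mutation variants displayed on the E. coli surface, counted by deep sequencing, each peptide's frequency after selection divided by its frequency in the unselected input library; frequency after pTyr selection over input frequency; kinase dosed for 20-30% of maximal phosphorylation in three min.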

EPHB1, sequence (P54762 whole entry, looked up): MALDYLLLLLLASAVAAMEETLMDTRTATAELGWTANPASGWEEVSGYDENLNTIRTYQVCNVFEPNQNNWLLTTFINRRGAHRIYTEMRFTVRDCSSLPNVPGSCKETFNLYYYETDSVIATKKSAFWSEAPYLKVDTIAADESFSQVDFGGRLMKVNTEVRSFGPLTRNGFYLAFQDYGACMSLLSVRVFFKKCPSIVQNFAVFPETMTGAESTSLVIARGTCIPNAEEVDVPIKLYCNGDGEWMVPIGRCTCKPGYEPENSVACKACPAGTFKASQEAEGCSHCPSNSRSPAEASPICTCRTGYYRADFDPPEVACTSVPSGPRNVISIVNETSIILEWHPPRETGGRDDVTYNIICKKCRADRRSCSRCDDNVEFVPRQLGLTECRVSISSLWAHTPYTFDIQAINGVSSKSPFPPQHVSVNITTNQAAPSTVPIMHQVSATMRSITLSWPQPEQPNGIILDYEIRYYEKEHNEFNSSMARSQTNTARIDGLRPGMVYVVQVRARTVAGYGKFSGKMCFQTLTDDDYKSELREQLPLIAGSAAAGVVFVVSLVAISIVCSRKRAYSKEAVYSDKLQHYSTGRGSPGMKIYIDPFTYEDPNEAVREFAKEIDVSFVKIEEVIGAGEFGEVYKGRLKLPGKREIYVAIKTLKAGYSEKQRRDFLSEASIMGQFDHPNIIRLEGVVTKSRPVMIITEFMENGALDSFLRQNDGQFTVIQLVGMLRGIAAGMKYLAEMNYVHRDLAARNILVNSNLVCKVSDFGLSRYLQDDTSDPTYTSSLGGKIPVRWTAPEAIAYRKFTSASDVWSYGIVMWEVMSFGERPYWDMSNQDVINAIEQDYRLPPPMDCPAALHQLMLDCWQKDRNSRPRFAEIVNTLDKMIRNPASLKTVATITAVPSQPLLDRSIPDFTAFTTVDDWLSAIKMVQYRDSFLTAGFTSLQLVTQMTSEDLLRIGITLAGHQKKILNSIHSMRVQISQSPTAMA

| Sequence | SH2 binding enrichment (Grb2 SH2) | SH2 binding enrichment (SHP2-C SH2) | SH2 binding enrichment (c-Src SH2) | phosphorylation enrichment (AncSZ) | phosphorylation enrichment (EPHB1) | phosphorylation enrichment (EPHB2) | phosphorylation enrichment (FGFR1) | phosphorylation enrichment (FGFR3) | phosphorylation enrichment (Fer (mouse)) | phosphorylation enrichment (Fes) | phosphorylation enrichment (Fyn) | phosphorylation enrichment (Hck) | phosphorylation enrichment (Jak2) | phosphorylation enrichment (MERTK) | phosphorylation enrichment (c-Abl (mouse)) | phosphorylation enrichment (c-Src) |
| --- | --- | --- | --- | --- | --- | --- | --- | --- | --- | --- | --- | --- | --- | --- | --- | --- |
| DRLASYPDKVR [KRT14_Y129_L130P] | 0.901 | 0.587 | 0.461 | 0.508 | 0.354 | 0.356 | 0.417 | 0.391 | 0.373 | 0.516 | 0.371 | 0.387 | 0.508 | 0.383 | 0.482 | 0.372 |
| DRLAVYIDRVS [LMNA_Y45_R50S] | 0.807 | 0.589 | 0.58 | 0.881 | 0.472 | 0.5 | 0.463 | 0.638 | 0.397 | 0.953 | 0.428 | 0.503 | 0.725 | 0.33 | 0.351 | 0.311 |
| DSKIRYLSADS [TTF1_Y476_E473K] | 1.11 | 0.682 | 0.426 | 0.503 | 0.465 | 0.607 | 0.457 | 0.546 | 0.368 | 0.663 | 0.389 | 0.434 | 0.611 | 0.435 | 0.508 | 0.527 |
| DVELLYPVKEK [EPHX1_Y283] | 0.73 | 0.487 | 0.42 | 0.968 | 0.445 | 0.513 | 0.394 | 0.558 | 0.432 | 1.05 | 0.404 | 0.422 | 0.971 | 0.36 | 0.648 | 0.452 |
| DVFLKYLNFAT [PDE6B_Y212] | 1.82 | 1.5 | 0.935 | 1.23 | 0.855 | 0.44 | 0.535 | 0.826 | 0.509 | 1.29 | 0.557 | 0.544 | 1.56 | 0.647 | 1.46 | 0.597 |
| DVSVVCSEVKT [FCRL4_Y493_Y493C] | 1.1 | 0.581 | 0.594 | 1.15 | 0.617 | 0.614 | 0.625 | 0.838 | 0.537 | 1.3 | 0.681 | 0.635 | 0.995 | 0.456 | 0.867 | 0.594 |
| EASEQHLTKAS [NRCAM_Y739_Y739H] | 0.903 | 0.598 | 0.53 | 0.887 | 0.38 | 0.496 | 0.433 | 0.551 | 0.497 | 0.859 | 0.48 | 0.447 | 0.692 | 0.343 | 0.663 | 0.396 |
| EDGCIYPGTIA [SMN1_Y109_A111G] | 0.915 | 0.699 | 0.619 | 0.947 | 0.7 | 0.613 | 0.553 | 0.856 | 0.555 | 1.25 | 0.595 | 0.552 | 1.04 | 0.529 | 0.868 | 0.567 |
| EEGNPSFSSAR [MCCC2_Y520_Y520S_YF] | 0.75 | 0.574 | 0.462 | 0.682 | 0.418 | 0.467 | 0.388 | 0.623 | 0.426 | 0.876 | 0.42 | 0.395 | 0.826 | 0.459 | 0.681 | 0.433 |
| EEGRVYVYRLS [ITGAE_Y549] | 0.934 | 2.07 | 0.66 | 0.904 | 0.595 | 0.504 | 0.496 | 0.76 | 0.505 | 1.11 | 0.616 | 0.548 | 0.997 | 0.379 | 0.713 | 0.698 |
| EFKKHYGFSLF [ANXA3_Y295_YF] | 0.815 | 0.749 | 0.622 | 0.949 | 0.574 | 0.509 | 0.461 | 0.721 | 0.561 | 1.01 | 0.413 | 0.507 | 0.751 | 0.416 | 0.642 | 0.46 |
| EFLHKYKGFKI [SYNE1_Y6953_Q6951H_YF] | 0.832 | 0.998 | 0.34 | 0.857 | 0.458 | 0.264 | 0.397 | 0.545 | 0.379 | 0.765 | 0.318 | 0.435 | 0.667 | 0.431 | 0.697 | 0.508 |
| EHTTLYSDNST [KANSL1_Y223_N225D] | 0.949 | 0.723 | 0.585 | 0.697 | 0.45 | 0.433 | 0.475 | 0.591 | 0.661 | 0.801 | 0.407 | 0.561 | 0.654 | 0.443 | 0.512 | 0.497 |
| EKKKFYDTKIE [CASP5_Y104_YF] | 0.636 | 0.437 | 0.427 | 0.772 | 0.396 | 0.397 | 0.342 | 0.567 | 0.446 | 0.933 | 0.353 | 0.503 | 0.883 | 0.428 | 0.653 | 0.6 |
| EKKQTYGSCRK [LACTB_Y473_R469K] | 1.23 | 0.838 | 0.867 | 0.533 | 0.415 | 0.356 | 0.395 | 0.488 | 0.351 | 0.685 | 0.37 | 0.391 | 0.484 | 0.366 | 0.581 | 0.43 |
| EKLQKYFRQNP [EHHADH_Y682_YF] | 0.871 | 0.761 | 0.355 | 0.802 | 0.375 | 0.35 | 0.358 | 0.472 | 0.365 | 0.742 | 0.431 | 0.351 | 0.549 | 0.354 | 0.942 | 0.408 |

More lines, main results first:

| SH2 binding enrichment (Grb2 SH2) | SH2 binding enrichment (SHP2-C SH2) | SH2 binding enrichment (c-Src SH2) | Sequence | phosphorylation enrichment (AncSZ) | phosphorylation enrichment (EPHB1) | phosphorylation enrichment (EPHB2) | phosphorylation enrichment (FGFR1) | phosphorylation enrichment (FGFR3) | phosphorylation enrichment (Fer (mouse)) | phosphorylation enrichment (Fes) | phosphorylation enrichment (Fyn) | phosphorylation enrichment (Hck) | phosphorylation enrichment (Jak2) | phosphorylation enrichment (MERTK) | phosphorylation enrichment (c-Abl (mouse)) | phosphorylation enrichment (c-Src) |
| --- | --- | --- | --- | --- | --- | --- | --- | --- | --- | --- | --- | --- | --- | --- | --- | --- |
| 0.883 | 0.917 | 0.565 | DRLASNLDKVR [KRT10_Y160_Y160N] | 0.556 | 0.326 | 0.307 | 0.491 | 0.348 | 0.339 | 0.547 | 0.382 | 0.33 | 0.488 | 0.394 | 0.481 | 0.391 |
| 1.08 | 1.03 | 0.579 | DRPASYLEKVR [KRT13_Y118_L115P] | 0.438 | 0.307 | 0.247 | 0.3 | 0.404 | 0.276 | 0.605 | 0.299 | 0.284 | 0.43 | 0.342 | 0.441 | 0.362 |
| 0.707 | 0.595 | 0.493 | DSILVYQGKEQ [USH2A_Y1909] | 0.717 | 0.451 | 0.43 | 0.434 | 0.533 | 0.414 | 0.761 | 0.433 | 0.621 | 0.734 | 0.333 | 0.536 | 0.515 |
| 0.971 | 0.811 | 0.523 | DVVKDCAFVHM [RBM14_Y114_Y114C] | 0.899 | 0.582 | 0.535 | 0.573 | 0.623 | 0.498 | 0.993 | 0.488 | 0.486 | 0.71 | 0.401 | 0.645 | 0.384 |
| 0.812 | 0.935 | 0.709 | DYYDLYGGEKL [PTPN11_Y66_F71L] | 3.2 | 7.36 | 8.09 | 16.6 | 14.1 | 1.32 | 1.5 | 5.27 | 5.89 | 3.12 | 3.9 | 0.871 | 5.5 |
| 0.958 | 2.2 | 2.24 | EACRSYSHVVL [CHST6_Y168] | 0.808 | 0.454 | 0.498 | 0.533 | 0.701 | 0.824 | 0.711 | 0.611 | 0.548 | 0.602 | 0.463 | 0.881 | 0.538 |
| 1.14 | 0.904 | 0.751 | EEDPEYKKKFR [FAM161A_Y278] | 1.1 | 0.427 | 0.441 | 0.66 | 0.544 | 0.608 | 0.99 | 0.61 | 0.487 | 1.01 | 0.466 | 0.647 | 0.642 |
| 0.868 | 0.667 | 0.536 | EEGNPYFSGAR [MCCC2_Y520_S523G_YF] | 0.938 | 0.516 | 0.462 | 0.521 | 0.686 | 0.347 | 0.945 | 0.637 | 0.864 | 0.802 | 0.444 | 0.687 | 1.37 |
| 1.05 | 0.714 | 0.62 | EFISENCGEII [EZH2_Y641_Y641N] | 1.31 | 0.585 | 0.57 | 0.487 | 0.706 | 0.478 | 1.1 | 0.581 | 0.495 | 1.13 | 0.437 | 0.71 | 0.423 |
| 0.855 | 0.828 | 6.51 | EIIPFYGMSSY [FNDC3B_Y175_T179S] | 0.877 | 0.6 | 0.77 | 0.489 | 0.672 | 0.933 | 0.914 | 0.777 | 0.967 | 0.748 | 0.728 | 0.587 | 0.616 |
| 0.811 | 0.772 | 0.575 | EIRTQDEAMAS [GFAP_Y242_Y242D] | 0.688 | 0.515 | 0.42 | 0.498 | 0.57 | 0.353 | 0.755 | 0.43 | 0.443 | 0.945 | 0.457 | 0.489 | 0.408 |
| 0.869 | 0.937 | 0.473 | EKMWSYTKSAE [GRIA3_Y705_M706T] | 0.658 | 0.426 | 0.487 | 0.419 | 0.529 | 0.411 | 0.748 | 0.425 | 0.451 | 0.592 | 0.44 | 0.68 | 0.464 |
| 0.976 | 0.674 | 0.55 | EKQLLYSENKT [FRK_Y132] | 0.732 | 0.528 | 0.652 | 0.456 | 0.599 | 1.19 | 0.919 | 0.465 | 0.85 | 0.638 | 0.766 | 0.563 | 0.616 |
